In test [1] the target is T1, human GUCY2C (human, UniProt P25092 24-1073).
T1 construct: whole, on cells; also called huGUCY2C; guanylate cyclase 2C
Nature of the test: flow cytometry on CHO-huGUCY2C cells, 60 min at 37 °C.
Experimental: (§1) Cells were washed twice again, resuspended and acquired in a flow cytometer. Specific antibody binding was assessed in the RL1H channel for each cell line. Data presented as signal/background where background is secondary only.

Test [2] has as its target cyno GUCY2C (cynomolgus monkey, UniProt A0A2K5TZ02 16-1015). Nature of the test: flow cytometry on CHO-cynoGUCY2C cells, 60 min at 37 °C. (In general: Flow cytometry measures light scatter and fluorescence of single cells or particles in a stream.)
Experimental: as §1
The target of test [3] is T2, prostate specific membrane antigen (PSMA) (human, UniProt Q04609 1-750). Nature of the test: cell-based or functional assay.
Test [4] addresses T2, prostate specific membrane antigen …. Nature of the test: flow cytometry on LNCaP cells, 30 min at 37 °C.
Experimental: Media was added to neutralize trypsin and the cells were transferred to a 15 mL conical with DPBS. The cells were centrifuged 1300 rpm for 5 minutes. DPBS was aspirated and cells were re-suspended in DPBS. The cells were counted using the Vi-cell XR cell viability analyzer and were plated at 100K/well in 100 μL DPBS. The plate was centrifuged at 1200 rpm for 3 minutes and washed 2× with DPBS. Cells were stained with Violet Live/Dead stain (Thermo-Fisher) and incubated at room temperature in the dark for 15 min. The cells were centrifuged and washed 2× with FACS staining buffer (BD Pharmingen).
Cells were washed 2× with FACS staining buffer and re-suspended in 200 μL FACS Buffer. Cells were run on BD CELESTA using FACS Diva software and analyzed using FLOWJO.
Test [5] addresses T3, Human CD3 epsilon (human, UniProt P07766 23-207).
T3 construct: Stood on human T cells (pan-T cells, isolated donor T cells) as part of the TCR/CD3 complex; the other chains of the complex are not written here; also called CD3ε; CD3R
Nature of the test: flow cytometry on human PAN-T cells, 60 min at 4 °C.
Experimental: Human PAN-T Cells (Biological Specialty Corporation, Colmar, PA) were thawed and transferred to a 15 mL conical with DPBS. The cells were centrifuged 1300 rpm for 5 minutes. DPBS was aspirated and cells were re-suspended in DPBS. The cells were counted using the Vi-cell XR cell viability analyzer and were plated at 100K/well in 100 uL DPBS. The plate was centrifuged 1200 rpm for 3 minutes and washed 2× with DPBS. Cells were stained with Violet Live/Dead stain (Thermo-Fisher) and incubated at room temperature in the dark for 15 min. The cells were centrifuged and washed 2× with FACS staining buffer (BD Pharmingen).
Cells were washed 2× with FACS staining buffer and re-suspended in 200 μL FACS Buffer. Cells were run on BD Celesta using FACS Diva software and analyzed using FLOWJO.

The target of test [6] is T4, human claudin 18.2 (human, UniProt P56856-2 1-261).
T4 construct: whole, on cells; also called CLDN18.2
T4 sequence (looked up): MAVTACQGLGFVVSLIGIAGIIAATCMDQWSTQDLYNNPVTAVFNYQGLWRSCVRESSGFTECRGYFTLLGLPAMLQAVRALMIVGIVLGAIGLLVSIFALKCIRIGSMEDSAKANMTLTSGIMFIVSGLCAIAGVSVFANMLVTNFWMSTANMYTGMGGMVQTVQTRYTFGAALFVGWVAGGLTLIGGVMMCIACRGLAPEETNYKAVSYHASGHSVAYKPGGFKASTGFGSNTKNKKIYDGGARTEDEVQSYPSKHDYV
Nature of the test: flow cytometry on GSU cells, 1 hr at 37 °C.
Experimental: (§2) Cells were thawed in a 37° C. water bath and resuspended in complete assay media before being transferred to culture flasks. The cells used for this experiment were kept in active culture, passaged at least two times, and were >90% viable at assay initiation. The kinetic cell binding assay was initiated by adding 200 μL of cells and 200 μL of antibody into each well of a 2 mL 96-well deep plate and incubated at 37° C. At each time point, a 50 μL aliquot was removed and transferred to a round bottom 96-well plate containing cold FACS buffer. […] The secondary antibody was incubated with cells for 30 min at 4° C. protected from light. After incubation, cells were washed three times with cold FACS buffer and then resuspended in FACS buffer containing 0.1% pluronic acid, 2 mM EDTA, and Sytox Green (diluted 1:1000) to label all dead cells. Staining was immediately analyzed on the Intellicyt iQue3 (Sartorius).

Test [7] addresses T4, human claudin 18.2. Nature of the test: flow cytometry on NCI-H146 cells, 1 hr at 37 °C.
Experimental: as §2
Test [8] has as its target T4, human claudin 18.2. Nature of the test: flow cytometry on SK-CO-1 cells, 1 hour at 37 °C.
Experimental: Purified CLDN18.2×CD3 antibodies were assessed for their ability to bind to cell lines expressing endogenous CLDN18.2 (SK-CO-1).
SK-CO-1 cells and DMS 454 cells were suspended in 50 ml conical tubes at 20-22 million cells per 50 ml conical tube. […] Cells were incubated for 10 minutes at room temperature protected from light, and centrifuged for 5 minutes at 400×g. The supernatant was removed and the cells were resuspended in HI FBS at ˜1.5×10\hat{ }6 cells/mL to quench the staining reactions. All cells were resuspended in fresh media at ˜1.5×10\hat{ }6 cells/mL. Equal volumes of CFSE stained SK-CO-1 cells, CTV stained DMS 454 cells and unstained SK-CO-1 cells were mixed and 50 μl of mixed cells were plated per well into assay plates (˜25k cells/each cell line; ˜75k/total mixed cells/well). Anti-human transferrin human mAb and human IgG1_AAS isotype (bivalent) were used as positive and negative controls, respectively. 50 μl of CLDN18.2×CD3 titrations at 2× concentration were added in each well containing cells and incubated for one hours at 37° C. 150 μl staining buffer was added to each well after one hour incubation. The plate was spun at 500×g for 5 minutes to pellet the cells. 150 μl staining buffer was added again to each well and the plate was spun at 500×g for 5 minutes to pellet the cells. Supernatant was removed and 50 μl of A647 conjugated anti human IgG Fc specific secondary detection antibody (Jackson ImmunoResearch) was the added at 2 μg/mL in staining buffer to each well. The plates were covered with foil and incubated for 30 minutes on ice. 150 μL of IntelliCyt running buffer was added to the wells, and the plate was spun at 500×g for 5 minutes to pellet cells and the supernatant was removed. Cells were then resuspended in 35 μL running buffer and the plates were run on an iQue Screener (Sartorius).

T2 sequence (Q04609 whole entry): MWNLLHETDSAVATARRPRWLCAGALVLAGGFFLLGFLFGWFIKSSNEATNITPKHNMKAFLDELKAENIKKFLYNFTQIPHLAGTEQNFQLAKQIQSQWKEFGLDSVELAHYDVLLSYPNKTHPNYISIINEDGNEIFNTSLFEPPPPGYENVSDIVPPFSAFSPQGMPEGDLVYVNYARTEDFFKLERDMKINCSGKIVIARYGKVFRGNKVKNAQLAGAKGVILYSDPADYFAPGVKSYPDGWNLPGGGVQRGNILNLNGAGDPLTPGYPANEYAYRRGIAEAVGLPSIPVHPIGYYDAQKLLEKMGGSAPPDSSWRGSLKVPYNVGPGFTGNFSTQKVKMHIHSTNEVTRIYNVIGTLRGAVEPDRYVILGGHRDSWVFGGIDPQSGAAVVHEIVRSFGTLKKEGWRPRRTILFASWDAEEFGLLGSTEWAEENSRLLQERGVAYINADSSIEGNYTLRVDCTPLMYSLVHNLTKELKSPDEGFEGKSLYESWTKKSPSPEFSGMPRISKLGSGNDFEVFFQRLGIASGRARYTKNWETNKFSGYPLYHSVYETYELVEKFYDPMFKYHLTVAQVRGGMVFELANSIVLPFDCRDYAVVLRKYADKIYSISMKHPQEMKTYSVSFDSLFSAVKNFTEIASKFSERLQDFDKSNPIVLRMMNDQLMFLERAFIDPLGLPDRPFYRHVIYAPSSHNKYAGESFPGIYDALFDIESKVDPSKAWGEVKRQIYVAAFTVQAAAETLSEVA
T3 sequence (P07766 23-207 limits assumed): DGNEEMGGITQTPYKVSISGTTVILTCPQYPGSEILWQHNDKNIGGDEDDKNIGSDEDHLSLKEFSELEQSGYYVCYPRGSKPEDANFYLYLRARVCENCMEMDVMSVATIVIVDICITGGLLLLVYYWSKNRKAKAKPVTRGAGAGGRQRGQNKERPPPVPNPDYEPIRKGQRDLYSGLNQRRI
T1 sequence (P25092 24-1073): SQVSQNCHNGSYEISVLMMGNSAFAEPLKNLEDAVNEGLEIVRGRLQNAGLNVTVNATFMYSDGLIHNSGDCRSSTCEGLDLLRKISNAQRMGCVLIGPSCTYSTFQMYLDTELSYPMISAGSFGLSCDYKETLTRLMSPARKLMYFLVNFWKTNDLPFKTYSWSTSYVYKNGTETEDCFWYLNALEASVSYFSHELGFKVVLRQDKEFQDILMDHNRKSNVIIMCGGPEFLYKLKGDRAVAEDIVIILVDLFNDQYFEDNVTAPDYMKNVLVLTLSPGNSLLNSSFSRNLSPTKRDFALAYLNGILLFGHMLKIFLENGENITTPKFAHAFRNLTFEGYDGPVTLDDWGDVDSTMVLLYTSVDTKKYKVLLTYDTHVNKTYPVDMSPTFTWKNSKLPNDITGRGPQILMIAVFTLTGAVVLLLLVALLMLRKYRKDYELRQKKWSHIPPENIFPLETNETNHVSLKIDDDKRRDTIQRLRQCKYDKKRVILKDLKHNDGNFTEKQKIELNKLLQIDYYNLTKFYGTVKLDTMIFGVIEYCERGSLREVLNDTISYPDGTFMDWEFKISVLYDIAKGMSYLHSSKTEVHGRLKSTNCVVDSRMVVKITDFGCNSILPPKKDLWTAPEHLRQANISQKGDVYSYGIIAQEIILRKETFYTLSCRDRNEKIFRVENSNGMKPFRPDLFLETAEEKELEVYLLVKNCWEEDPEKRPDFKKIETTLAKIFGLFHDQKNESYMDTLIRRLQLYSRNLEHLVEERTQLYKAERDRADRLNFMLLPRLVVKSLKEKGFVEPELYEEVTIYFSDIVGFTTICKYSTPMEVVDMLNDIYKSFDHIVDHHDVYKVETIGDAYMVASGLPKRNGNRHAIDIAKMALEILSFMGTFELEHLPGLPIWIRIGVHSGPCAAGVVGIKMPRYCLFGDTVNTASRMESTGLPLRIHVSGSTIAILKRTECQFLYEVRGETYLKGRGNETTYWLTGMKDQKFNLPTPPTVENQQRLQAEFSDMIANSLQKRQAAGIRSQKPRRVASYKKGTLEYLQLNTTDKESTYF
cyno GUCY2C, sequence (A0A2K5TZ02 entry or part of it): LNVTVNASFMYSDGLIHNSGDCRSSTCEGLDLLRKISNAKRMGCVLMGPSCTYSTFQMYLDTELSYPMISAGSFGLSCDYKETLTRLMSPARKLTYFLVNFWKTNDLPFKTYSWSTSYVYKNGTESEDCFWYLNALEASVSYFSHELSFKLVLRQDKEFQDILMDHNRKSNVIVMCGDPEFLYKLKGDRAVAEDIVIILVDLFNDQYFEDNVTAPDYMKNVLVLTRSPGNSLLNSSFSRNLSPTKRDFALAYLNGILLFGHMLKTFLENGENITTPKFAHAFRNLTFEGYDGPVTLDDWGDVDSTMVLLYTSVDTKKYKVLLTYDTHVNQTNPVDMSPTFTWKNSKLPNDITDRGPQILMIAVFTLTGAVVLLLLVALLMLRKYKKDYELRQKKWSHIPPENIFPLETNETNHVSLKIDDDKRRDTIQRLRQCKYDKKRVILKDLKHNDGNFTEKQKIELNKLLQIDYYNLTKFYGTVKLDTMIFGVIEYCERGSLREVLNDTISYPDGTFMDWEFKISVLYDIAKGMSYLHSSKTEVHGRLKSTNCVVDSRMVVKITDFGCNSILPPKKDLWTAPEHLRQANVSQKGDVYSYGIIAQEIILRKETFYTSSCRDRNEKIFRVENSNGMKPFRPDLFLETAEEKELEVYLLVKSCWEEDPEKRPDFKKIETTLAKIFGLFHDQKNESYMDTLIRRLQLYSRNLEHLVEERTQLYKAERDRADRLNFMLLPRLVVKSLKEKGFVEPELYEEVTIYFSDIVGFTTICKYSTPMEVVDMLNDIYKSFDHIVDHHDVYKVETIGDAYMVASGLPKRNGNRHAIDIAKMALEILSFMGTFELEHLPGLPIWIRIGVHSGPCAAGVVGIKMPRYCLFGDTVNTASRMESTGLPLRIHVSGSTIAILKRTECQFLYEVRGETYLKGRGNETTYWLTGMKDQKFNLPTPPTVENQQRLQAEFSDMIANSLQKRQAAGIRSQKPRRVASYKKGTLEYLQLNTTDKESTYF

B1: GUCY2C_mAb (antibody, V domains shown)
VH: QVQLQESGPGLVKPSETLSLTCTVSGASISHYYWSWIRRPAGKGLEWIGRIYTSGSTNYNPSLKSRVTVSVDTSKNQFSLKLSSVTAADTAVYYCARDRYTGYFDLWGRGTLVTVSS
VL: not shown
notes: also called GUCYC2_mAb
For B1, the EC50 in test [1] was 4.6 nM; in test [2], 8.7 nM.

B2: stapled PSMA×CD3 antibody (PS3B2040) (bispecific antibody, human IgG1, lambda, L234A L235A)
heavy: EVQLVESGGGLVQPGGSLRLSCAASGFTFSSYAMSWVRQAPGKGLEWVSAISGGIGSTYYADSVKGRFTISRDNSKNTLWLQMNSLRAEDTAVYYCAKDAVGATPYYFDYWGQGTLVTVSSASTKGPSVFPLAPSSKSTSGGTAALGCLVKDYFPEPVTVSWNSGALTSGVHTFPAVLQSSGLYSLSSVVTVPSSSLGTQTYICNVNHKPSNTKVDKKVEPKSCDKTHTCPPCPAPEAAGGPSVFLFPPKPKDTLMISRTPEVTCVVVSVSHEDPEVKFNWYVDGVEVHNAKTKPREEQYNSTYRVVSVLTVLHQDWLNGKEYKCKVSNKALPAPIEKTISKAKGQPREPQVYTLPPSREEMTKNQVSLSCAVKGFYPSDIAVEWESNGQPENNYKTTPPVLDSDGSFFLVSKLTVDKSRWQQGNVFSCSVMHEALHNRFTQKSLSLSPGK
light: QSVLTQPPSVSAAPGQKVTISCSGSSSNIGINYVSWYQQLPGTAPKLLIYDNNKRPSGIPDRFSGSKSGTSATLGITGLQTGDEADYYCGTWDSSLSAVVFGGGTKLTVLGQPKAAPSVTLFPPSSEELQANKATLVCLISDFYPGAVTVAWKADSSPVKAGVETTTPSKQSNNKYAASSYLSLTPEQWKSHRSYSCQVTHEGSTVEKTVAPTECS
chain: EIVLTQSPATLSASPGERVTLSCSASSSVSYMNWYQQKPGCAPRRWIYDSSKLASGVPARFSGSGSGRDYTLTISSLEPEDFAVYYCQQWSRNPPTFGGGTKVEIKGGGSGGSGGCPPCGGSGGQVQLVQSGAEVKKPGSSVKVSCKASGYTFTRSTMHWVKQAPGQGLEWIGYINPSSAYTNYNQKFQGRVTLTADKSTSTAYMELSSLRSEDTAVYYCASPQVHYDYAGFPYWGCGTLVTVSSEPKSSDKTHTCPPCPAPEAAGGPSVFLFPPKPKDTLMISRTPEVTCVVVSVSHEDPEVKFNWYVDGVEVHNAKTKPREEQYNSTYRVVSVLTVLHQDWLNGKEYKCKVSNKALPAPIEKTISKAKGQPREPQVYTLPPSREEMTKNQVSLWCLVKGFYPSDIAVEWESNGQPENNYKTTPPVLDSDGSFFLYSKLTVDKSRWQQGNVFSCSVMHEALHNHYTQKSLSLSPGK
notes: HC1/LC1 = anti-PSMA Fab arm (PSMB896-G100A-Fab); HC2 = anti-CD3 spFv-Fc (CD3B2030 N106A, VL-linker-VH); knob-in-hole IgG1; also called stapled PSMA×CD3 bispecific
Consider B2, for which, in test [3], the “cytotoxicity EC50 (% tumor lysis, Incucyte), LNCaP cells with human PBMCs, E:T 3:1” value turned out to be 0.051 nM and the “cytotoxicity EC50 (% tumor lysis, Incucyte), LNCaP cells with human Pan T cells, E:T 3:1” value is 0.06 nM. The same molecule had a concentration giving a half-maximal response (EC50) in test [4] of 11.6 nM. Moreover, the binding result in test [5] is “binds”.

B3: CLDN18.2xCD3 bisp-Ab4 (bispecific antibody)
heavy: EVQLLESGGGLVQPGGSLRLSCAASGFIFSNYYMAWVRLAPGKGLEWVSSISIGGGKSHYADSVKGRFTISRDNSKNTLYLQMNSLRAEDTAVYYCVRHPQLGPNPFDYWGQGTLVTVSSASTKGPSVFPLAPSSKSTSGGTAALGCLVKDYFPEPVTVSWNSGALTSGVHTFPAVLQSSGLYSLSSVVTVPSSSLGTQTYICNVNHKPSNTKVDKKVEPKSCDKTHTCPPCPAPEAAGGPSVFLFPPKPKDTLMISRTPEVTCVVVSVSHEDPEVKFNWYVDGVEVHNAKTKPREEQYNSTYRVVSVLTVLHQDWLNGKEYKCKVSNKALPAPIEKTISKAKGQPREPQVYTLPPSREEMTKNQVSLSCAVKGFYPSDIAVEWESNGQPENNYKTTPPVLDSDGSFFLVSKLTVDKSRWQQGNVFSCSVMHEALHNRFTQKSLSLSPGK
light: DIQMTQSPSSLSASVGDRVTITCRASQSVTISSVDLMNWYQQKPGKAPKLLIYRASNLASGIPSRFSGSGSGTDFTLTISSLQPEDFATYYCQQSRESPYTFGQGTKLEIKRTVAAPSVFIFPPSDEQLKSGTASVVCLLNNFYPREAKVQWKVDNALQSGNSQESVTEQDSKDSTYSLSSTLTLSKADYEKHKVYACEVTHQGLSSPVTKSFNRGEC
chain: EIVLTQSPATLSASPGERVTLSCSASSSVSYMNWYQQKPGCAPRRWIYDSSKLASGVPARFSGSGSGRDYTLTISSLEPEDFAVYYCQQWSRNPPTFGGGTKVEIKGGGSGGSGGCPPCGGSGGQVQLVQSGAEVKKPGSSVKVSCKASGYTFTRSTMHWVKQAPGQGLEWIGYINPSSAYTNYNQKFQGRVTLTADKSTSTAYMELSSLRSEDTAVYYCASPQVHYDYAGFPYWGCGTLVTVSS
notes: The entry for the CD3 arm holds only the spFv; also called CLDN18.2×CD3 bisp-Ab4; not shown: IgG1 hinge-CH2-CH3 with L234A/L235A/D265S and heterodimerization mutations
As to B3, the EC50 stood at 74 nM in test [6], 23 nM in test [7] and 41.3 nM in test [8].

B4: CLDN18.2xCD3 bisp-Ab1 (bispecific antibody)
heavy: EVQLLESGGGLVQPGGSLRLSCAASGFIFSNYYMAWVRLAPGKGLEWVSSISIGGGKSSYADSVKGRFTISRDNSKNTLYLQMNSLRAEDTAVYYCVRHPQLGPNPFDYWGQGTLVTVSSASTKGPSVFPLAPSSKSTSGGTAALGCLVKDYFPEPVTVSWNSGALTSGVHTFPAVLQSSGLYSLSSVVTVPSSSLGTQTYICNVNHKPSNTKVDKKVEPKSCDKTHTCPPCPAPEAAGGPSVFLFPPKPKDTLMISRTPEVTCVVVSVSHEDPEVKFNWYVDGVEVHNAKTKPREEQYNSTYRVVSVLTVLHQDWLNGKEYKCKVSNKALPAPIEKTISKAKGQPREPQVYTLPPSREEMTKNQVSLSCAVKGFYPSDIAVEWESNGQPENNYKTTPPVLDSDGSFFLVSKLTVDKSRWQQGNVFSCSVMHEALHNRFTQKSLSLSPGK
light: DIQMTQSPSSLSASVGDRVTITCRASQSVTISSVDLMNWYQQKPGKAPKLLIYRASNLASGIPSRFSGSGSGTDFTLTISSLQPEDFATYYCQQSRESPYTFGQGTKLEIKRTVAAPSVFIFPPSDEQLKSGTASVVCLLNNFYPREAKVQWKVDNALQSGNSQESVTEQDSKDSTYSLSSTLTLSKADYEKHKVYACEVTHQGLSSPVTKSFNRGEC
chain: EIVLTQSPATLSASPGERVTLSCSASSSVSYMNWYQQKPGCAPRRWIYDSSKLASGVPARFSGSGSGRDYTLTISSLEPEDFAVYYCQQWSRNPPTFGGGTKVEIKGGGSGGSGGCPPCGGSGGQVQLVQSGAEVKKPGSSVKVSCKASGYTFTRSTMHWVKQAPGQGLEWIGYINPSSAYTNYNQKFQGRVTLTADKSTSTAYMELSSLRSEDTAVYYCASPQVHYDYAGFPYWGCGTLVTVSS
notes: not shown: IgG1 hinge-CH2-CH3 with L234A/L235A/D265S and heterodimerization mutations
With B4, the concentration giving a half-maximal response (EC50) in test [8] worked out at 12.7 nM.

B5: CLDN18.2xCD3 bisp-Ab3 (bispecific antibody)
heavy: EVQLLESGGGLVQPGGSLRLSCAASGFIFSNYYMAWVRLAPGKGLEWVSSISIGGGKSHYADSVKGRFTISRDNSKNTLYLQMNSLRAEDTAVYYCVRHPQSGPNPFDYWGQGTLVTVSSASTKGPSVFPLAPSSKSTSGGTAALGCLVKDYFPEPVTVSWNSGALTSGVHTFPAVLQSSGLYSLSSVVTVPSSSLGTQTYICNVNHKPSNTKVDKKVEPKSCDKTHTCPPCPAPEAAGGPSVFLFPPKPKDTLMISRTPEVTCVVVSVSHEDPEVKFNWYVDGVEVHNAKTKPREEQYNSTYRVVSVLTVLHQDWLNGKEYKCKVSNKALPAPIEKTISKAKGQPREPQVYTLPPSREEMTKNQVSLSCAVKGFYPSDIAVEWESNGQPENNYKTTPPVLDSDGSFFLVSKLTVDKSRWQQGNVFSCSVMHEALHNRFTQKSLSLSPGK
light: DIQMTQSPSSLSASVGDRVTITCRASQSVTISSVDLMNWYQQKPGKAPKLLIYRASNLASGIPSRFSGSGSGTDFTLTISSLQPEDFATYYCQQSRESPYTFGQGTKLEIKRTVAAPSVFIFPPSDEQLKSGTASVVCLLNNFYPREAKVQWKVDNALQSGNSQESVTEQDSKDSTYSLSSTLTLSKADYEKHKVYACEVTHQGLSSPVTKSFNRGEC
chain: EIVLTQSPATLSASPGERVTLSCSASSSVSYMNWYQQKPGCAPRRWIYDSSKLASGVPARFSGSGSGRDYTLTISSLEPEDFAVYYCQQWSRNPPTFGGGTKVEIKGGGSGGSGGCPPCGGSGGQVQLVQSGAEVKKPGSSVKVSCKASGYTFTRSTMHWVKQAPGQGLEWIGYINPSSAYTNYNQKFQGRVTLTADKSTSTAYMELSSLRSEDTAVYYCASPQVHYDYAGFPYWGCGTLVTVSS
notes: The entry for the CD3 arm holds only the spFv; not shown: IgG1 hinge-CH2-CH3 with L234A/L235A/D265S and heterodimerization mutations
B5 yielded an EC50 in test [8] of 229 nM.

B6: CLDN18.2xCD3 bisp-Ab2 (bispecific antibody)
heavy: EVQLLESGGGLVQPGGSLRLSCAASGFIFSNYYMAWVRLAPGKGLEWVSSISIGGGKSHYADSVKGRFTISRDNSKNTLYLQMNSLRAEDTAVYYCVRHPSLGPNPFDYWGQGTLVTVSSASTKGPSVFPLAPSSKSTSGGTAALGCLVKDYFPEPVTVSWNSGALTSGVHTFPAVLQSSGLYSLSSVVTVPSSSLGTQTYICNVNHKPSNTKVDKKVEPKSCDKTHTCPPCPAPEAAGGPSVFLFPPKPKDTLMISRTPEVTCVVVSVSHEDPEVKFNWYVDGVEVHNAKTKPREEQYNSTYRVVSVLTVLHQDWLNGKEYKCKVSNKALPAPIEKTISKAKGQPREPQVYTLPPSREEMTKNQVSLSCAVKGFYPSDIAVEWESNGQPENNYKTTPPVLDSDGSFFLVSKLTVDKSRWQQGNVFSCSVMHEALHNRFTQKSLSLSPGK
light: DIQMTQSPSSLSASVGDRVTITCRASQSVTISSVDLMNWYQQKPGKAPKLLIYRASNLASGIPSRFSGSGSGTDFTLTISSLQPEDFATYYCQQSRESPYTFGQGTKLEIKRTVAAPSVFIFPPSDEQLKSGTASVVCLLNNFYPREAKVQWKVDNALQSGNSQESVTEQDSKDSTYSLSSTLTLSKADYEKHKVYACEVTHQGLSSPVTKSFNRGEC
chain: EIVLTQSPATLSASPGERVTLSCSASSSVSYMNWYQQKPGCAPRRWIYDSSKLASGVPARFSGSGSGRDYTLTISSLEPEDFAVYYCQQWSRNPPTFGGGTKVEIKGGGSGGSGGCPPCGGSGGQVQLVQSGAEVKKPGSSVKVSCKASGYTFTRSTMHWVKQAPGQGLEWIGYINPSSAYTNYNQKFQGRVTLTADKSTSTAYMELSSLRSEDTAVYYCASPQVHYDYAGFPYWGCGTLVTVSS
notes: as for B5
B6 had a concentration giving a half-maximal response (EC50) in test [8] of 193 nM.

The term EC50 denotes the concentration giving half of the maximal effect. Higher therefore signals a less potent agent.
